Source: paper PMC10516636, “Structural basis for the selective methylation of 5-carboxymethoxyuridine in tRNA modification” (Nucleic Acids Research, 2023)

T1: CmoM (Escherichia coli (ASKA library clone), UniProt P36566 1-261)
T1 sequence: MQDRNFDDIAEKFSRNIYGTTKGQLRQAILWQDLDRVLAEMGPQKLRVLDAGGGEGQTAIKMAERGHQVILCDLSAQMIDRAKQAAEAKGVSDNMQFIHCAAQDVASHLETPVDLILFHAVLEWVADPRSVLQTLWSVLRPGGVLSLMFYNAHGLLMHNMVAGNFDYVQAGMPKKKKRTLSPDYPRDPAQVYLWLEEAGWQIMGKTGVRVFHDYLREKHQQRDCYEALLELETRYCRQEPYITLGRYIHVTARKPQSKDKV


How the values were obtained:
CmoM = molecular target: T1, CmoM; assay: X-ray crystallography (2.22 A); sinefungin (3 mM); Mg2+ (0.04 M magnesium acetate in reservoir); Crystallization: CmoM:tRNA 1:4 molar ratio, 3 mM sinefungin; reservoir 0.04 M Mg acetate, 0.05 M Na cacodylate pH 6.0, 30% MPD, 25 C; protein in 25 mM HEPES pH; settings: protein: recombinant; tags: His tag (ASKA pCA24N vector; HisTrap purified); tRNA fold with 16-nt variable arm
[1] = molecular target: the molecule itself; assay: SEC; Superdex 75 column, 100 ug wild-type CmoM, 25 mM HEPES pH 7.5, 150 mM NaCl, 0.5 ml/min; ovalbumin (44 kDa) and MnmC (76 kDa) run for comparison

| Binder | binding result (CmoM) | stoichiometry N [1] |
| --- | --- | --- |
| tRNASer1(cmo5UGA) (structured_RNA, cmo5U34; i6A37 (partly ms2i6A37); other native tRNA modifications) RNA: GGAAGUGUGGCCGAGCGGUUGAAGGCACCGGUCUUGAAAACCGGCGACCCGAAAGGGUUCCAGAGUUCGAAUCUCUGCGCUUCCGCCA | binds | – |
| Escherichia coli CmoM (wild type, recombinant) (enzyme, E. coli, CmoM, SAM-dependent tRNA cmo5U34 methyltransferase of E. coli; cmoM gene on pCA24N from the ASKA library; calculated monomer molecular weight 31.7 kDa; 257 protein residues modelled in the crystal structure; also called E. coli CmoM; source: E. coli BL21 (DE3), purified (HisTrap HP Ni2+ column); not shown: His tag (inferred from the HisTrap Ni2+ purification)) QDRNFDDIAEKFSRNIYGTTKGQLRQAILWQDLDRVLAEMGPQKLRVLDAGGGEGQTAIKMAERGHQVILCDLSAQMIDRAKQAAEAKGVSDNMQFIHCAAQDVASHLETPVDLILFHAVLEWVADPRSVLQTLWSVLRPGGVLSLMFYNAHGLLMHNMVAGNFDYVQAGMPKKKKRTLSPDYPRDPAQVYLWLEEAGWQIMGKTGVRVFHDYLREKHQQRDCYEALLELETRYCRQEPYITLGRYIHVTARKPQSKDKV | – | 2 |
